Measured values from paper PMC12261273, “Refinement and Truncation of DNA Aptamers Based on Molecular Dynamics Simulations: Computational Protocol and Experimental Validation”.

Tests used:
[1] = tested on: 33-mer immunodominant gluten (gliadin) peptide; experiment: SPR; conditions: RT (electrochemistry), pH 7.4, PSA-1, B4 and truncations: 1x PBS (10 mM phosphate, 154 mM NaCl), 24nt variants: 10 mM Tris-HCl, 150 mM NaCl, 5 mM KCl
[2] = tested on: 33-mer immunodominant gluten (gliadin) peptide; experiment: chronoamperometry; conditions: RT (electrochemistry), pH 7.4, PSA-1, B4 and truncations: 1x PBS (10 mM phosphate, 154 mM NaCl), 24nt variants: 10 mM Tris-HCl, 150 mM NaCl, 5 mM KCl
[3] = tested on: collagen XI 10-mer peptide (non-helical C-telopeptide fragment); experiment: chronoamperometry (magnetic beads); conditions: RT (electrochemistry), pH 7.4, PSA-1, B4 and truncations: 1x PBS (10 mM phosphate, 154 mM NaCl), 24nt variants: 10 mM Tris-HCl, 150 mM NaCl, 5 mM KCl
[4] = target: T1, prostate specific antigen (PSA) (human, UniProt P07288 25-261); experiment: SPR; 5 mM MgCl2; RT (electrochemistry), pH 7.4; PSA-1, B4 and truncations: 1x PBS (10 mM phosphate, 154 mM NaCl); 24nt variants: 10 mM Tris-HCl, 150 mM NaCl, 5 mM KCl, 5 mM MgCl2; Gli1 series: 50 mM Tris-HCl, 250 mM NaCl, 5 mM MgCl2; conditions: protein: native; label: 5' 6FAM; hairpin
T1 sequence (P07288 25-261): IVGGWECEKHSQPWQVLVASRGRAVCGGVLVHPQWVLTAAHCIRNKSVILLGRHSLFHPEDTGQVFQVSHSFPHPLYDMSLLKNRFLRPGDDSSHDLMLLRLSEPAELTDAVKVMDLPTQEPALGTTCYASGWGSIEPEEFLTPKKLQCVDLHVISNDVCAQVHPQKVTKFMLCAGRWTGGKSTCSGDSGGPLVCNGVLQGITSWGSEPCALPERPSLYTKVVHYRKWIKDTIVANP

[5] = target: T1, prostate specific antigen (PSA); experiment: chronoamperometry; 5 mM MgCl2; RT (electrochemistry), pH 7.4; PSA-1, B4 and truncations: 1x PBS (10 mM phosphate, 154 mM NaCl); 24nt variants: 10 mM Tris-HCl, 150 mM NaCl, 5 mM KCl, 5 mM MgCl2; Gli1 series: 50 mM Tris-HCl, 250 mM NaCl, 5 mM MgCl2; conditions: protein: native; label: 5' 6FAM; hairpin
[6] = target: T1, prostate specific antigen (PSA); experiment: chronoamperometry; RT (electrochemistry), pH 7.4; PSA-1, B4 and truncations: 1x PBS (10 mM phosphate, 154 mM NaCl); 24nt variants: 10 mM Tris-HCl, 150 mM NaCl, 5 mM KCl, 5 mM MgCl2; Gli1 series: 50 mM Tris-HCl, 250 mM NaCl, 5 mM MgCl2; conditions: protein: native; label: 5' 6FAM
[7] = target: T1, prostate specific antigen (PSA); experiment: SPR; RT (electrochemistry), pH 7.4; PSA-1, B4 and truncations: 1x PBS (10 mM phosphate, 154 mM NaCl); 24nt variants: 10 mM Tris-HCl, 150 mM NaCl, 5 mM KCl, 5 mM MgCl2; Gli1 series: 50 mM Tris-HCl, 250 mM NaCl, 5 mM MgCl2; conditions: protein: native; label: 5' 6FAM

CTAGGCGAAATATAGCTACAACTGTCTGA [Gli1T(1-29)]
Kd [1]: 71 nM
Kd [2]: 86 nM

TTTTTATTCAGGGCACCTGGAACGACGCGTCGGCT [B4T(11-40)]
Kd [3]: 44 nM

TTTTTGACGCAAGAAATTCAGGGCACCTGGAACGACGCGTCGGCT [B4]
Kd [3]: 147 nM

CTAGGCGAAATATAGCTACAACTGTCTGAAGGCACCCAAT [Gli1]
Kd [1]: 155 nM
Kd [2]: 136 nM

TTTTTAATTAAAGCTCGCCATCAAATAGC (ssDNA) [5Ts-24nt]
Kd [4]: 545 ± 24 nM
Kd [5]: 460 ± 64 nM

TTTTTGGACGGTTGCGCTATATTTAACCAAAAGTCTGGATTAACA (ssDNA) [PSA-1]
Kd [6]: 348 ± 58 nM
Kd [7]: 125 ± 21 nM

TTTTTAATTAAAGCTCGCCATCAAATAGCTTT (ssDNA) [5Ts-24nt-3Ts (deltaPSap4#5)]
Kd [4]: 232 ± 4 nM
Kd [5]: 152 ± 9 nM

TTTTTTATTTAACCAAAAGTCTGGATTAACA (ssDNA) [PSA-1T(15-40)]
Kd [6]: 111 ± 9 nM
Kd [7]: 130 ± 25 nM
